Test results: US7053179 (WHITEHEAD INSTITUTE FOR BIOMEDICAL RESEARCH, dated 2006)

Target: gp160 (precursor protein to gp120/gp41) expressed on CHO cells (HIV (strain ))
Assay: cell-based or functional assay

In the case of GGHTTWMEWDREINNYTSLIHSLIEESQNQQEKNEQELLGGHHHHHH [His-tagged C-peptide C37-H6], the “IC50 in the cell-cell fusion assay” value is reported as ~1 nM.
